Data from the DeepSol protein solubility set.

assay: soluble on expression in E. coli; label from the status in PepcDB or PDB records

Row | Sequence | soluble on expression in E. coli
1 | MSLIFLDYDGTLVPIIMNPEESYADAGLLSLISDLKERFDTYIVTGRSPEEISRFLPLDINMICYHGACSKINGQIVYNNGSDRFLGVFDRIYEDTRSWVSDFPGLRIYRKNLAVLYHLGLMGADMKPKLRSRIEEIARIFGVETYYGKMIIELRVPGVNKGSAIRSVRGERPAIIAGDDATDEAAFEANDDALTIKVGEGETHAKFHVADYIEMRKILKFIEMLGVQKKQEGHHHHHH | soluble
2 | MRLVEIGRFGAPYALKGGLRFRGEPVVLHLERVYVEGHGWRAIEDLYRVGEELVVHLAGVTDRTLAEALVGLRVYAEVADLPPLEEGRYYYFALIGLPVYVEGRQVGEVVDILDAGAQDVLIIRGVGERLRDRAERLVPLQAPYVRVEEGGIHVDPIPGLFDLEHHHHHH | not soluble
3 | MGSSHHHHHHSSGLVPRGSHMRTVTGAILAMNLEVKDFVHRDVEEADRRLREIGARKILLQLPDGLKPYAFDYFTYLSQRYDVILSSSPVYGACDIGPSYLYDRVDAIVQVGHSIMRNVKYPRPVIFIEHYRTVDVEDINTEALKNYRRIGLIYSIQYRPVADRVKRILESKGFEVIIGRSDRRMTYDGQVLGCNFSSVHSVEAEVEAFVIVSTGSFHALGSQISTERPVFLLDLNEMSLRSMEKEADTFIRKRYAQIYRAMDAKRICFLVDTRIGQRREKLARMLMDRARDLGKEAVLAYTDNISDQDIQNMGCDLAVYTGCPRVPIDDQDRFTVPVLTPAEFSMAFFKSSKRYVLDEIVSVDEFTDQ | soluble
4 | MKKRKPMDYKTRIIYALLKSRLKTIDTYASRAEEIQDRQLRRILSSAAYTSTGIRYGFNRISSKECFARNVPVRDYESTQAEIERMLRGEKDVLCPGRCTWFAKSSGTTNSKSKFIPVPYRHLHYCHYQGGKDSLSLYLRNRPDSRFFTTKGLVLGGSHAPVSMNADIQVGDLSAILVENMPVLGNCMRVPSKETLLMDEWTEKLKAVVREVAHVRVGSLSGVPSWILVLIKDVLAATGRETLSDVWPELEVFFHGGISFAPYRAQYEKLIPSSRMQYMETYNASEGFFGIQDDPKDSGMLLMLDYGVYYEFIPMEHFGRPEAEAIPLEGVEKGRNYAMIISTLGGLYRYVLGDTVRFTSVKPYKIVITGRTKHYINAFGEELMVDNSDKALAATCKRFGVQAVDYTVAPHFFSEEGKGRHDWLIEFVSAPADPNAFAKALDAELQTLNSDYEAKRYADMTLLPLSLTIARSGLFHDWLTEQGKLGGQHKVPRLSNTPEIMRSILEMNSAAALEHHHHHH | not soluble
5 | MGESLDRCIDDINRAVDSMSTLYFKPPGIFHNAILQGASNKASIRKDITRLIKDCNHDEAYLLFKVNPEKQSVSRRDGKEGVFDYVIKRDTDMKRNRRLGRPGEKPIIHVPKEVYLNKDRLDLNNKRRRTATTSGGGLNGFIFDTDLIGSSVISNSSSGTFKALSAVFKDDPQIQRLLYALENGSVLMEEESNNQRRKTIFVEDFPTDLILKVMAEVTDLWPLTEFKQDYDQLYHNYEQLSSKLRFIKKEVLLQDDRLKTMSQYHPSSSHDVAKIIRKEKDEIRRLEMEIANLQE | not soluble
6 | MGSDKIHHHHHHMLITFNFEVHQPHRLNKEINQNGNTLWEKYVDTKLNKEVFNKVANKCYIPTNELILELIDEYDFKVNYSITGVFVEQALEFNDYVLDLFKDLVKTGNVELIAETYHHSLTSLFETEDEFIEDIEMHRKMYKEIFGFKAKVFRNTELIYNNRIAKIAKDLGFKAIFTEGIEKILGWRSPNYLYQSPDGMKILLRNYRLSDDIGFRFSARDWDQYPLTADKYAIWLASTPGEVINIYMDYETFGEHHWKETGIFEFLRYLPIEIAKHEHLEVVNVSEVVDRLEPRGEIYVHEFATISWADTERDVSAWLGNKMQRISFEKLKDIGKFIKENSNKLKKLNKFDEIYKMYKVLQTSDNLYYQSIKGLSDMSVHNYFSHFDTPFDAYASYLNILYDFEYYIKELLAKSEFDKNNRRKDGQKQYEKDDEVKKESLINTNIIVAKDDKTESIYIEDEEGKKNKRYERDEGFIIA | not soluble
7 | MDYTEESAQIPEMAEKLGIPTSRKETKTLELPVSIDFRNWCSPIEDQMDLGSCTAHAGVGVVEYFERRAFGKHIDGSRFFVYKTTRNLMGVKGDTGAWLRNTMGALALCGVPPEKYFPYTSRKTPGPDGEPTFDDEPSSFVYSLADNFEALNYFCHDPQGMNLPPEDVILSVKKYLAAGIPSMFGFYGFPSFKDTDVKGGIPFPGPDERSIWGHAVVAVGYDDNMKIRNTLSNKETTGAFLIRNSWGTAWGDKGYGWLPYEYALNKFALDFWSLISMKWVETGNFGLELESSRSRARETLSRDMPLPHALEHHHHHH | not soluble
8 | MFEEGSEDEVTLMGCTQDEVKPKVGLSQKKWFPKEDIVLVRAWLNTNKDHVIGNDQQCQSFLKQIASYVAISPQLDYLPKREHAKCKQRWSKVNKSVTKFVGCYKTATTHKTSGQSEDDVMKLAYEIYYNDTKKKFNLEHTWRKLRYDQKWCEAATIKGNKNAKRKCVDGY | soluble
9 | MNSPANITDPLVLFMPSGKRGRFPVGTPVLDAARQLGVYVESVCGGRATCGRCQIEVQEGNFAKHKIVSSNDHISPKGPKEERYERVRGLPERRRLSCSAQILGDLVIDVPQDTVINAQTIRKDLEHHHHHH | not soluble
10 | TRSVKSCVGKEFCRFGTQYTTRLGIRLEKTFEYIDTPHKFKMGVSGCPRSCVESGVKDFGIISVENGFQIYIGGNGGTEVEKAEFLTTVETEDEVIKLCGALMQYYRETGIYAERTAPWLRRLGFENVKEVLLD | not soluble
11 | MGSDKIHHHHHHMKKLLRNLFGSGREEEKRSASDAMSGREQIVTNSEKSNLSTDPDHVNRQADTLKFDAIRAMNMGELVFATEALRKAMELRPEFETRYYLTEALLRRHLTEEALAQMNLLLEEVPMHTATLLNRAKLRLEQNDPSRALEDCGTGIESTSELEEQALFLYYGASAMKDMKNLKDALCLLKQAIEKNDAFIPARLLRARILIDLERYEEATQDLDWVAASDPEEEQVPMLRARLFMLEGKQQNAIQAYEELLSLDPFNEEGHCGIATLMIKEGRSAEAETFLREAIEEMPVQRNLILMLVEILENKGQTQEAAEWRAKLPEAEVESEAVNFNDLYKGNLY | not soluble
12 | MAEVVNISKSASFSKQEKEFSDFQKSKESNEKILNKESNRFTLHPIMYPEVWNFYKKAEASFWTAEEIDLSSDLKDFEKLNVNEKHFIKHVLAFFAASDGIVLENLASKFLREVEIIEAKKFYSFQIAVENIHSETYSLLIDNYIKDEKERLNLFHAIENIPAIKNKALWAAKWINDTNSFAERIVANACVEGILFSGSFCAIFWFKKQNKLHGLTFSNELISRDEGLHTDFNCLIYSLLENKLPENVVQNIVKEAVEVERSFICESLPCDLIGMNSRLMSQYIEFVADRLLECLGCSKVFHSKNPFNWMDLISLQGKTNFFEKRVADYQKSGVMAQRKEQVFSLNTDF | soluble
13 | MKDKQLRLRIYRSAFSSMKNAIVEKAREFGVPVILVDPSYTSSICPVHGSKIIYQPDGGSAPRVGVCGKGGERWHRDVVALYNLRKRAGDVLEHHHHHH | not soluble
14 | MVPITHQNLIEMMTYALVLSGNRVITSGATGTNSAAIKGAMRADPNLLTVILPQSLERQPQESRQQLEQVMHLVENPSNDNLSLAEASYLCNKEIVSRCQQLICFAFHDSRTLLQTCGDAEEQRKVVTLFYFDLEHHHHHH | not soluble
15 | MSRITQVHRILEQKHLDAIIILSDYNRRYLSGFTGTSGALIISKDKQYLITDFRYIDQATKQAPNYEIINRKSTIIGEIKELLHQENFENVGFEGHHVSYDTYLELNKSRISLISISNTVDKIRDVKDADEIALIQKAANIVDETYEYILTVVKAGMTEKELKAILESKMLELGADGPSFDTIVASGHRGALPHGVASDKIIEKGDMITLDFGAYYNGYCSDITRTFAIGEPDPKLKEIYQIVLESQMKAINEIRPGMTGAEADAISRNYLESKGYGKEFGHSLGHGIGLEIHEGPMLARTIQDKLQVNNCVTVEPGVYIEGLGGIRIEDDILITENGCQVFTKCTKDLIVLT | not soluble
16 | MDLTKLTFESVFGGSDVPMKPSRSEDNKTPRNRTDLEMFLKKTPLMVLEEAAKAVYQKTPTWGTVELPEGFEMTLILNEITVKGQATSKKAARQKAAVEYLRKVVEKGKHEIFFIPGTTKEEALSNIDQISDKAEELKRSTSDAVQDNDNDDSIPTSAEFPPGISPTENWVGKLQEKSQKSKLQAPIYEDSKNERTERFLVICTMCNQKTRGIRSKKKDAKNLAAWLMWKALEDGIESLESYDMVDVIENLEEAEHLLEIQDQASKIKDKHSALIDILSDKKRFSDYSMDFNVLSVSTMGIHQVLLEISFRRLVSPDPDDLEMGAEHTQTEEIMKATAEKEKLRKKNMPDSGPLVFAGHGSSAEEAKQCACKSAIIHFNTYDFTD | not soluble
17 | MLIAITGTPGVGKTTVAKLLAKKLNYEYVSLKDFALEKGCGRRVNDEVEVEIDELAYFIERELKGKNAVLDGHLSHLMPVDLVVVLRAHPKLIGERLRERGYDREKIGENVEAELVDAVLIEAIEEHENVIEVDTTNKSPEDVVEEIVSLINSGIKKRVGIVDWSEVYDEIIPYLRLGGELEHHHHHH | soluble
18 | AGQKVMITKMITDSVANPQMKQAFEQRLAKASTEDALNDIKRDIIRSAI | soluble
19 | MGSDKIHHHHHHMKLITFVCAAFLCLPSLAQEKFPDGTPVSDWFKDSKIVDINTLGKKYILTDYGVINDSTLLQTEKIQSAIDAAAQNGGGVIVIPKGTYLSGALFFKPKTHLHLEEGAVLKGSDDISNFPIIDTRMEGQSLKYFAALVNADKVDGFTLSGKGTIDGNGLRYWKSFWLRRKVNPQCTNMDELRPRLVHISHSNNVQLSGVRLINSPFWTTHLYKCNHIKLLNLYIFSPEKPVKAPSTDAIDIDVCSNVLVKNCYMSVNDDAIALKGGKGPWADQDPNNGGNFNIIIEDCTYGFCHGALTCGSESIHNRNIILRRIHITNANRLLWLKMRPDTPQQYEYILVEDITGDADHFLYIKPWTQFFDLKDRKDIPVSYSNHVTMRNIDFKCDNFFSVEKSDQYQLTNFTFENLNIKAKNGECDKEMIDNFIWKKVSINNIK | not soluble
20 | MNLESITVVLPTRNEAGNIGAFLASLPQAVHLIVVDASEDETPDIIQRERPARTQVLRRRSTITQARQLGAEAALTDWLLFTDADIVFPDGYFDALERVMDAAVVYGPKLSRDRFAAYYRWFGYGQQCSHWLGIPAATGSNLLVRKDALIAVGGFDPALVCNEDSELVWRIKRAGYRIRFEPSLPVYARDHRRLDSGLWRKTCHSVFRCALLYWDLMPARWRGADWGYWSPQQSGRAPGVSRVELEHHHHHH | not soluble
21 | MSYAKEMLDAIEAGQMETAKQLFTQVLAHDDDETQYNLAEELYALGFNGQAKRLYQGLLGRYPDQGDLATALADIAVSDGDTDAALNYLSRIQPGDPAYVQSLVSAADVYQTLGLYEVSEQKLLEAKRLAPDEPVVTFALGEFYFDWGHFAEAISAYNELLAAGTTELAGVNIEARLAASLAQTGQYEDAVAAYEDVGVDALDLNGRFELGGLYLQLDDPAKAITNLQAVIDSDPSYANAYLPLARAYEAQNQPDKALDTVQAGVMVDDTNPTLYALGGKLALSEDNVKLAETYLQKALAIDPEDQGNMLAWSNFLVQEERDQENVDFLDQIDRSGDVDPQIYWNMAKSYDRLENIKKARENYLLAFNRFQDSPDFLHDIIDFFQSTGARAELKAALVRYLKLVPTDDEMQARLDELNAETDLEHHHHHH | soluble
22 | MAHHHHHHMPIIESDLLSLAYKAALSALLSEEIYNFGKFLNERHFTERLADSVQHAWILEWLRLCNDGKVEEFEQYAVAHKAEMAASPILSESFPSITKKVRLMALLHLVFYTPFNERTFTFDVIARRCAVDEERVEPLLLAALAQGIIMGKIDGLTQEVHITWVEPRVLSLQEVKELAVHVSRWKEKTLGLMQCMKEAAQETHN | not soluble
23 | MRSGDAEIKGIKPKVIEEYSLSQGSGPSNDSWKSLMSSAKDTPLQYDHMNRESLKKYFNPNAQLIEDPLDKPIQYRVCEKCGKPLALTAIVDHLENHCAGASGK | soluble
